Measured values from the RNAGym collection of RNA variant scans (doi:10.1073/pnas.2313332121).
Variants at the floor of the assay were thinned out.

B1: TPR 5TU (parent)
chain: GGAUCUUCUCGAUCUAACAAAAAAGACAAAUCUGCCACAAAGCUUGAGAGCAUCUUCGGAUGCAGAGGCGGCAGCCUUCGGUGGCGCGAUAGCGCCAACGUUCUCAACUAUGACACGCAAAACGCGUGCUCCGUUGAAUGGAGUUUAUCAUG

Variants of: B1
Assay: polymerase ribozyme fitness, log enrichment relative to wild type (log ratio); higher = more active; in vitro selection for triplet polymerase activity
Outline: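 PCR was used to build mutant libraries for each subunit of a heterodimeric triplet polymerase ribozyme, which were then transcribed. A single in vitro selection round, in triplicate, used a frozen incubation at −7 °C and recovered extended constructs by gel excision, streptavidin beads and RT-PCR. Fitness is the logarithm of genotype enrichment relative to wild-type enrichment, averaged over replicates with inverse-variance weights. The logarithm is base 2, and after Illumina sequencing only genotypes with ≥10 input reads and ≥1 read per output were kept.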

Variant	polymerase ribozyme fitness (log ratio)
A24U G86A	-1.43
A24U G86U	-2.59
G25C C54A C76U G88A	≤ -4.2
A24U A30U G59A U101C U102G A121U G126C A142C	≤ -4.2
A24G C54A A106G	≤ -4.2
A24G G74A C93G G140C U151G	≤ -4.2
A24U A39C G92U U144G U148G	≤ -4.2
A24G U31A C38G U53A C57A U77C G83A A137C	≤ -4.2
G25C G48C A66G C93A	≤ -4.2
G25C A52C G58C G62U U78G U82C C93A C125G	≤ -4.2
A23U U90C C93U U102G A119U G124A G133U U134C	≤ -4.2
A24U G68C G83U A107C	≤ -4.2
A24G U53A C95U	≤ -4.2
G25A U82C C105G A121U	-4.07
A24G A29C A37G G46U C57U C76U A122U A138G U144G U151C	≤ -4.2
A24U G59C	0.829
A24C A30U A138U U144G	≤ -4.2
A24G C75A A113U	≤ -4.2
A24G G42U C72A A91U G92A U102G G136U	≤ -4.2
G25U A30C A47C C99G U101G C105A	≤ -4.2
A24U U45G G92C	-2.88

Variant	polymerase ribozyme fitness (log ratio)
A24C G62C G86U U102C	≤ -4.2
A24U U102C A120G A121C	-2.13
A24G A30U U31C U101G	-3.98
A24C U45A C57U G84A	≤ -4.2
A24C G88U C95G C96U	≤ -4.2
A24G C54A	-3.54
A24U A73U A119G A121U C132A	-3.66
G25A A89U C95G	-4.2
A24U C149G	-3.88
A24U C36G U56A C57A G71U A91C A106C A110G A138G	≤ -4.2
A24G A97U G140U	≤ -4.2
A24U G34U A47C C95G C108A A110G A138C A147C G152A	≤ -4.2
A24G C116G	-2.85
A24G U55G	-3.78
A24U G25A A39G A60U G83C	≤ -4.2
A24U G80U C123G U146G	-1.39
A24G C54U C95U A97C A119U C125U	≤ -4.2
A24C A30G A73U C96A	≤ -4.2
G25C U61A C87G A138G	≤ -4.2
G25C A41C A52G G86A C96A	≤ -4.2
G25C C79A G84U A97C	≤ -4.2

Variant	polymerase ribozyme fitness (log ratio)
A24U A26U C54U G84U U127A	≤ -4.2
A24G G62U G94A C116G A120U U127A U135C	≤ -4.2
G25C C38A G50C G92C U130G	≤ -4.2
A24U U53A U55A G68C C76A C85G	≤ -4.2
A24C G68U C75G C76G A110G A121U	≤ -4.2
A24C C54A A60G A73U U77G	≤ -4.2
A23U U148C	-4.13
A24C U31A A52G	-3.62
A24U C27U C51A G92A A113U	≤ -4.2
A24U C32G U135G G143A	-4.12
A24U U61A C93A C116G	-4.17
A24G C57U	-3.7
A24U U55A	-0.466
A24U U55G	0.467
A24C A29C A37U G59A U61G C87A C103G G117U	≤ -4.2
G25A U55A U135A	-3.79
A24C A29C U55G G94C	≤ -4.2
A24U C93U G136A	-1.47
A24C A64C	≤ -4.2
A24C A37C C38U G59A C95A A107C C116U	≤ -4.2
A24U U53A C57G A115U U151A	≤ -4.2

Variant	polymerase ribozyme fitness (log ratio)
G25C C72U A91G A119U U127A	≤ -4.2
A24U U45C U101G A106G	0.694
G25C U56A U104C A106U A113G U139G U145A	≤ -4.2
A24U G62U C96A G117A	-1.86
A24U U31G A52C G65A G84C C87U A119G	≤ -4.2
G25A C32A A40C C123A G124A A138C	≤ -4.2
A24C C51U C105G	≤ -4.2
A24U U53A U56G C57U A91U	≤ -4.2
A24U C32A	-3.85
A24G A40C U55G A97U	≤ -4.2
A24U A60G C85U A97C C129U	-0.602
G25C U31A C96G	-1.31
G25A U61A	-3.19
A24U U31C G59C A66G A91U C114U	≤ -4.2
G25C C132U	-3.65
A24U C51G U55A G59C	-2.27
G25A C27G U44A G86C A97U A110C	≤ -4.2
A24G U31A U82C U101G	≤ -4.2
A24U U61A	-1.72
A24U A41C U45A G46C A49C G86A	-3.99
A24U U56C G62A A64G G68C G83A G124U U146A	≤ -4.2
